Reference: US20220195012A1
Substitutions are numbered along the chain they refer to. Numbers in names are those of the source. Each block holds one binder with its values, some of them ahead of it.

How the values were obtained:
Experiment in all cases: cell-based or functional assay
[1] = substrate: CP C3-convertase (C4b2a) (UniProt P0C0L4)
C3b = C3b (UniProt P01024)
AP C3-convertase (C3bBb) = AP C3-convertase (C3bBb) (UniProt P01024)
C4b = C4b (UniProt P0C0L4)
Chain of C4b (P0C0L4 757-1446 limits assumed, chain 1 of 3): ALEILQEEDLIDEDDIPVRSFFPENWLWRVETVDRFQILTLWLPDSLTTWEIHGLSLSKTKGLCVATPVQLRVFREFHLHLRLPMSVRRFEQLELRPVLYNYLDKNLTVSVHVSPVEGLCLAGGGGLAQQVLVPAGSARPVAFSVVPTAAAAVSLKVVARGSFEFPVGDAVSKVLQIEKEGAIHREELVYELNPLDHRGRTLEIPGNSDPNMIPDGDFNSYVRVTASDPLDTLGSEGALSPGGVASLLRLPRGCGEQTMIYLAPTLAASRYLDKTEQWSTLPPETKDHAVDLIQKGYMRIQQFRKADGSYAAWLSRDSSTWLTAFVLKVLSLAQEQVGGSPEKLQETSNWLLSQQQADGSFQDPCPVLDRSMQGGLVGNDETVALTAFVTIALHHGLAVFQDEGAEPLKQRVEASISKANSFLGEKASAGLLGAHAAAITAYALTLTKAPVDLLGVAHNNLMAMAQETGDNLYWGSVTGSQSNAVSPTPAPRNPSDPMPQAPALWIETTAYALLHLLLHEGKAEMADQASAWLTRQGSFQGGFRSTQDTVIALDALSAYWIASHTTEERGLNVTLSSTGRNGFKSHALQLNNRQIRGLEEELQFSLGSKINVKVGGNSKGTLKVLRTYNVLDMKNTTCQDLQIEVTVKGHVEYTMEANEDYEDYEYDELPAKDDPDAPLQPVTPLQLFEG
Chain of C4b (P0C0L4 20-675 limits assumed, chain 2 of 3): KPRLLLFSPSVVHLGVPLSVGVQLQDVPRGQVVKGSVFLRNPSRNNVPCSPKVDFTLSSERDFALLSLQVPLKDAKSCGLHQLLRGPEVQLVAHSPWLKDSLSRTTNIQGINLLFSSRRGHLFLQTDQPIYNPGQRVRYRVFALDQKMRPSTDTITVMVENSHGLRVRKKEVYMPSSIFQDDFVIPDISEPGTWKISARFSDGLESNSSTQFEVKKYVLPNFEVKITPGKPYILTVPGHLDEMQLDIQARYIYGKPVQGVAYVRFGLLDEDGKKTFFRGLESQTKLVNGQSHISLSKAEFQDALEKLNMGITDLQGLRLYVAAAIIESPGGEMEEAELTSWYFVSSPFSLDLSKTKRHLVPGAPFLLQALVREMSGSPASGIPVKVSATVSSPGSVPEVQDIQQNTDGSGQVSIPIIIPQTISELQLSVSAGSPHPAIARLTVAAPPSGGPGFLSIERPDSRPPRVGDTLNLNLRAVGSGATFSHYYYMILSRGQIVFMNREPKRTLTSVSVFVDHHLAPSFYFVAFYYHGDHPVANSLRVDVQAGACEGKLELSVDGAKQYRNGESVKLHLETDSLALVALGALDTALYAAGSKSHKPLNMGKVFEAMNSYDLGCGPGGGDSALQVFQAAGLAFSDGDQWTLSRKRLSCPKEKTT
Chain of C4b (P0C0L4 1454-1744 limits assumed, chain 3 of 3): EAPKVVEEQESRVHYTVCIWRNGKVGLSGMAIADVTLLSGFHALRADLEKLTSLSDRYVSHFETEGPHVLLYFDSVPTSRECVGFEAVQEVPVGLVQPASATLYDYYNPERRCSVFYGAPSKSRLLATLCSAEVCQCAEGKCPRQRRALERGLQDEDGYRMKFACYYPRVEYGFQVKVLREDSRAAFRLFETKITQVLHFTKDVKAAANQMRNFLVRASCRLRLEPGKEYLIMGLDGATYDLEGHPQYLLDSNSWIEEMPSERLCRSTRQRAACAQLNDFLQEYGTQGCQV

Chain of AP C3-convertase (C3bBb) (P01024 23-667 limits assumed, chain 1 of 3): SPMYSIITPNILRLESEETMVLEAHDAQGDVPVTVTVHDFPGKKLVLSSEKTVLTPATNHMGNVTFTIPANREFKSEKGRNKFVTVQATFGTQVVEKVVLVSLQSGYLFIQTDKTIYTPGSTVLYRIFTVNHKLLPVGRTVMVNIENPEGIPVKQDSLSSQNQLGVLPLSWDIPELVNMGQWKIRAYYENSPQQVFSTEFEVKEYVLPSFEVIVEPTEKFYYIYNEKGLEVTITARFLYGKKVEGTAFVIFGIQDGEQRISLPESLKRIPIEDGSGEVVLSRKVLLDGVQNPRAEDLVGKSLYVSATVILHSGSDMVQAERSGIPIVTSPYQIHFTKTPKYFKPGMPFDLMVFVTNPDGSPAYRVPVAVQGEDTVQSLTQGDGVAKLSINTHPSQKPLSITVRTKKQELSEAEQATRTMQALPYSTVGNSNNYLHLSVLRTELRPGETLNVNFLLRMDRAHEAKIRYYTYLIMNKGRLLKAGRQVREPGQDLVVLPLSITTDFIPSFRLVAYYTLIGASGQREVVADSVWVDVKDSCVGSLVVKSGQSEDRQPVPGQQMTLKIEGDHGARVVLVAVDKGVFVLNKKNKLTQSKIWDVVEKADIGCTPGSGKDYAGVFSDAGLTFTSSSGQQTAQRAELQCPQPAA
Chain of AP C3-convertase (C3bBb) (P01024 749-1663 limits assumed, chain 2 of 3): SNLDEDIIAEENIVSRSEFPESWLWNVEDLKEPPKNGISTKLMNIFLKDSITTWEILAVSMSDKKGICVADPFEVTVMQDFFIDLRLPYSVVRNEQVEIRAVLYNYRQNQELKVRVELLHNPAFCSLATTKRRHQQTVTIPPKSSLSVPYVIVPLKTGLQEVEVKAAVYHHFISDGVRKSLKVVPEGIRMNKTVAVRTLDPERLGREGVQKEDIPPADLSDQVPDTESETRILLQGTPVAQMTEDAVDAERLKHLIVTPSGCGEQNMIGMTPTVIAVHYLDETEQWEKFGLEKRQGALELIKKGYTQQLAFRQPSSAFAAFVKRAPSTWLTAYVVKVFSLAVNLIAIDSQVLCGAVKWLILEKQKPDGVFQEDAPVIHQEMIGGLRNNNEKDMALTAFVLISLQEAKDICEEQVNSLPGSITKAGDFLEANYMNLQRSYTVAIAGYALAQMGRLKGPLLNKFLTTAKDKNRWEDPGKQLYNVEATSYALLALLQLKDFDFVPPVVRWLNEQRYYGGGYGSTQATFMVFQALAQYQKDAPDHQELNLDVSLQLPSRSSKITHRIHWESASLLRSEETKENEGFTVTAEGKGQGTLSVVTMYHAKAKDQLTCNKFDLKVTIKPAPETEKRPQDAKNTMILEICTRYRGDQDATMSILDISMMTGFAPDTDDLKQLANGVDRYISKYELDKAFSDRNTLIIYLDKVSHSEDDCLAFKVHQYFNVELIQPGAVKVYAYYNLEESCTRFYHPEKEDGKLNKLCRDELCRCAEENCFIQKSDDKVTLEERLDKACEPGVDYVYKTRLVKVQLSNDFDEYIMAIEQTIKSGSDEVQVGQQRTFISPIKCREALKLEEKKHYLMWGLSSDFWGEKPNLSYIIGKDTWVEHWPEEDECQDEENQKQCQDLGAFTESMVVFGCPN
Chain of AP C3-convertase (C3bBb) (P00751 260-764 limits assumed, chain 3 of 3, further chain): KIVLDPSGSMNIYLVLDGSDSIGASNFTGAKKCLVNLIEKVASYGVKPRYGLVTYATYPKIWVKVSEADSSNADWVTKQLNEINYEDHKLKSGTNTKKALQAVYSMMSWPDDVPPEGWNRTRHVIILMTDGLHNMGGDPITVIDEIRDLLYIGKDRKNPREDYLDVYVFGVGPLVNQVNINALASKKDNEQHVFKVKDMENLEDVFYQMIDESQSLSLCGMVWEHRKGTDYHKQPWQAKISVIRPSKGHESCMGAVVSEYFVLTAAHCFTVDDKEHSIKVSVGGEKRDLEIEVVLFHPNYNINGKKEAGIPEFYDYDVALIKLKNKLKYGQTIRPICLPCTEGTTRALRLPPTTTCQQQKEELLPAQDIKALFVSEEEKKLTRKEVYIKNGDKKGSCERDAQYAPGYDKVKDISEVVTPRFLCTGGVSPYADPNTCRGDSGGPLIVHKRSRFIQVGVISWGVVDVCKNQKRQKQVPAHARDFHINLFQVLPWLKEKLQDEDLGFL
Chain of C3b (P01024 23-667 limits assumed, chain 1 of 2): as the sequence (P01024 23-667 limits assumed, chain 1 of 3) above
Chain of C3b (P01024 749-1663 limits assumed, chain 2 of 2): as the sequence (P01024 749-1663 limits assumed, chain 2 of 3) above
Chain of CP C3-convertase (C4b2a) (P0C0L4 757-1446 limits assumed, chain 1 of 4): as the sequence (P0C0L4 757-1446 limits assumed, chain 1 of 3) above
Chain of CP C3-convertase (C4b2a) (P0C0L4 20-675 limits assumed, chain 2 of 4): as the sequence (P0C0L4 20-675 limits assumed, chain 2 of 3) above
Chain of CP C3-convertase (C4b2a) (P0C0L4 1454-1744 limits assumed, chain 3 of 4): as the sequence (P0C0L4 1454-1744 limits assumed, chain 3 of 3) above
Chain of CP C3-convertase (C4b2a) (P06681 244-752 limits assumed, chain 4 of 4, further chain): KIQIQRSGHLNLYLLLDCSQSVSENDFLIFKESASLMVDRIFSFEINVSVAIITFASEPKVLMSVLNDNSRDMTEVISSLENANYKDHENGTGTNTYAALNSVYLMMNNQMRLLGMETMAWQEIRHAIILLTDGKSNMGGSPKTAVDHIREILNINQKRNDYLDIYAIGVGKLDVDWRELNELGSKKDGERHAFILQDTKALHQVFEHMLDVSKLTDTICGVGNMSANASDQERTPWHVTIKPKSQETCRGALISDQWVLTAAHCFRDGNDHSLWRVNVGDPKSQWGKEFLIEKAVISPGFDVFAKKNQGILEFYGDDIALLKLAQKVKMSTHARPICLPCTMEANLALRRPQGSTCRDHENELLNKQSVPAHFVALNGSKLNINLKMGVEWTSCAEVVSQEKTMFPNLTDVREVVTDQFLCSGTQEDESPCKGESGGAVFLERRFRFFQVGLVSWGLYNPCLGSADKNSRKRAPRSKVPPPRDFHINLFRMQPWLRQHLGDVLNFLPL

- CP-DAA IC50 [1]: 21 µM
- Relative CP-DAA [1]: 0.75
- C3b CFA: Time (min.) for 50% cleavage of C3B α′-chain (C3b): 30.1 min
- Relative C3b CFA (C3b): 2.7
- AP-DAA IC50 (AP C3-convertase (C3bBb)): 0.0034 µM
- Relative AP-DAA (AP C3-convertase (C3bBb)): 0.6
- C4b CFA: Time (min.) for 50% cleavage of C4B α′-chain (C4b): 93.3 min
- Relative C4b CFA (C4b): 5
B3: D2D3M3M4 (P216K) (protein)
chain: CEVPTRLNSASLKQPYITQNYFPVGTVVEYECRPGYRREPSLSPKLTCLQNLKWSTAVEFCKKKSCPNPGEIRNGQIDVPGGILFGATISFSCNTGYKLFGSTSSFCLISGSSVQWSDKLPECREIYCTPPPKIKNGKHTFSEVEVFEYLDAVTYSCDPAPGPDPFSLIGESTIYCGDNSVWSRAAPECKVVKCRFPVVENGKQISGFGKKFYYKATVMFECDKGFYLDGSDTIVCDSNSTWDPPVPKCLKVL

- CP-DAA IC50 [1]: 17.7 µM
- Relative CP-DAA [1]: 0.9
- C3b CFA: Time (min.) for 50% cleavage of C3B α′-chain (C3b): 103 min
- Relative C3b CFA (C3b): 0.8
- AP-DAA IC50 (AP C3-convertase (C3bBb)): 0.0037 µM
- Relative AP-DAA (AP C3-convertase (C3bBb)): 0.56
- C4b CFA: Time (min.) for 50% cleavage of C4B α′-chain (C4b): 513 min
- Relative C4b CFA (C4b): 0.9
B4: D2D3M3M4 (T200Y) (protein)
chain: B3 chain with T103Y, K119P

- CP-DAA IC50 [1]: 15.5 µM
- Relative CP-DAA [1]: 1
- C3b CFA: Time (min.) for 50% cleavage of C3B α′-chain (C3b): 74.3 min
- Relative C3b CFA (C3b): 1.1
- AP-DAA IC50 (AP C3-convertase (C3bBb)): 0.0025 µM
- Relative AP-DAA (AP C3-convertase (C3bBb)): 0.9
- C4b CFA: Time (min.) for 50% cleavage of C4B α′-chain (C4b): 268 min
- Relative C4b CFA (C4b): 8.7
B6: D2D3M3M4 (T192E) (protein)
chain: B3 chain with T95E, K119P

- CP-DAA IC50 [1]: 23.7 µM
- Relative CP-DAA [1]: 0.7
- C3b CFA: Time (min.) for 50% cleavage of C3B α′-chain (C3b): 18.9 min
- Relative C3b CFA (C3b): 4.4
- AP-DAA IC50 (AP C3-convertase (C3bBb)): 0.0065 µM
- Relative AP-DAA (AP C3-convertase (C3bBb)): 0.3
- C4b CFA: Time (min.) for 50% cleavage of C4B α′-chain (C4b): 181 min
- Relative C4b CFA (C4b): 2.5
B9: D2D3M3M4 (S199K) (protein)
chain: B3 chain with S102K, K119P

- AP-DAA, fold increase compared to D2M2-4 (AP C3-convertase (C3bBb)): 12.5 fold
- AP-DAA, fold less compared to DAF (AP C3-convertase (C3bBb)): 138 fold
B10: D2M2-4 (Tetra) (protein)
chain: CEVPTRLNSASLKQPYITQNYFPVGTVVEYECRPGYRRQPSLSPKLTCLQNLKWSTAVEFCKKKSCPNIRDPLNGQAVPANGTYEFGYQMHFICNEGYYLAGEEILYCELKGSVAIWSGKPPICEKVKCTPPPKIKNGKHTFSEVEVFEYLDAVTYSCDPAPGPDPFSLIGESTIYCGDNSVWSRAAPECKVVKCRFPVVENGKQISGFGKKFYYKATVMFECDKGFYLDGSDTIVCDSNSTWDPPVPKCLKVL

The remaining lines, values behind:

B1: D2D3M3M4 (L205K) (protein)
chain: B3 chain with L108K, K119P
- CP-DAA IC50 [1]: 9.2 µM
- Relative CP-DAA [1]: 1.7
- C3b CFA: Time (min.) for 50% cleavage of C3B α′-chain (C3b): 104 min
- Relative C3b CFA (C3b): 0.8
- AP-DAA IC50 (AP C3-convertase (C3bBb)): > 0.01 µM
- Relative AP-DAA (AP C3-convertase (C3bBb)): 0.2
- C4b CFA: Time (min.) for 50% cleavage of C4B α′-chain (C4b): 433 min
- Relative C4b CFA (C4b): 1.07

B2: D2D3M3M4 (Multi-5) or DCP (decay-cofactor protein) (protein)
chain: B3 chain with F100I, E122I, R124E, E125K, I126V, Y127L
- CP-DAA IC50 [1]: 12.7 µM
- Relative CP-DAA [1]: 1.3
- C3b CFA: Time (min.) for 50% cleavage of C3B α′-chain (C3b): 3.3 min
- Relative C3b CFA (C3b): 1.5
- AP-DAA IC50 (AP C3-convertase (C3bBb)): 0.0024 µM
- Relative AP-DAA (AP C3-convertase (C3bBb)): 1.3
- C4b CFA: Time (min.) for 50% cleavage of C4B α′-chain (C4b): 3.1 min
- Relative C4b CFA (C4b): 3

B5: D2D3M3M4 (F197I) (protein)
chain: B3 chain with F100I, K119P
- CP-DAA IC50 [1]: 30.7 µM
- Relative CP-DAA [1]: 0.5
- C3b CFA: Time (min.) for 50% cleavage of C3B α′-chain (C3b): 49.8 min
- Relative C3b CFA (C3b): 1.7
- AP-DAA IC50 (AP C3-convertase (C3bBb)): 0.0044 µM
- Relative AP-DAA (AP C3-convertase (C3bBb)): 0.3
- C4b CFA: Time (min.) for 50% cleavage of C4B α′-chain (C4b): 96.7 min
- Relative C4b CFA (C4b): 7

B7: D2D3M3M4 (K195Y) (protein)
chain: B3 chain with K98Y, K119P
- CP-DAA IC50 [1]: > 100 µM
- Relative CP-DAA [1]: 6.2
- AP-DAA IC50 (AP C3-convertase (C3bBb)): > 0.01 µM
- Relative AP-DAA (AP C3-convertase (C3bBb)): 0.2
- C4b CFA: Time (min.) for 50% cleavage of C4B α′-chain (C4b): > 540 min
- Relative C4b CFA (C4b): < 0.85

B8: D2D3M3M4 (Multi-1) (protein)
chain: B3 chain with K119P, E122I, R124E, E125K, I126V, Y127L
- CP-DAA IC50 [1]: 22.6 µM
- Relative CP-DAA [1]: 0.7
- C3b CFA: Time (min.) for 50% cleavage of C3B α′-chain (C3b): 27.3 min
- Relative C3b CFA (C3b): 3
- AP-DAA IC50 (AP C3-convertase (C3bBb)): 0.0019 µM
- Relative AP-DAA (AP C3-convertase (C3bBb)): 1.1
- C4b CFA: Time (min.) for 50% cleavage of C4B α′-chain (C4b): 493 min
- Relative C4b CFA (C4b): 1.07
